Laboratory results taken from patent US20120134979A1, “METHODS AND COMPOSITIONS FOR THE TREATMENT OF SICKLE CELL DISEASE” (priority 2010, published 2012).

What was measured:
Type in all cases: in vivo, mouse
WT mice = experiment: WT (control) mice treated with PEG-ADA or PSB1115 for 8 weeks; details: chronic PEG-ADA enzyme therapy
Source text: Mice. Berkley sickle cell disease transgenic mice (SCD Tg mice), expressing exclusively human sickle hemoglobin (HbS) were purchased from The Jackson Laboratory Inc (Paszty, C. Transgenic and gene knock-out mouse models of sickle cell anemia and the thalassemias. Curr Opin Hematol 4, 88-93, 1997). C57BL/6 mice used as controls were purchased from Harlan Laboratories. Adenosine receptor deficient mice were obtained from the following sources: A1R-deficient mice (Jurgen Schnermann, NIDDK, NIH); A2AR-deficient mice (Jiang-Fan Chen, Boston University School of Medicine); A2BR-deficient mice (Michael R. Blackburn, University of Texas-Houston Medical School); and A3R-deficient mice (Marlene Jacobson, Merck Research Laboratories). […]
Mouse organ isolation and histological analysis. Mice were anesthetized and body weight was determined. […] Semiquantification of histological changes was analyzed by Image-Plus, Pro software.

SCD Tg mice [1] = experiment: Urine measurements (proteinuria, osmolality) in SCD Tg mice after chronic PEG-ADA
Experimental: (§1) Chronic PEG-ADA therapy. SCD transgenic mice, at eight weeks of age, were divided to two groups. One group was injected with 2.5 U PEG-ADA weekly for 8 weeks. This dosing protocol was designated SCD with PEG-ADA treatment regimen (SCD+PEG-ADA). Another group was injected with normal saline for 8 weeks; it was designated as SCD without PEG-ADA treatment regimen (SCD). Wild-type mice (C57Bl/6) used as control were injected with saline or PEG-ADA as with the SCD groups.
Mouse urine collection and measurements. Urine was collected using a metabolic cage (Bioseb, France) for proteinuria and creatinine analysis using a commercially available kit (Exocell, Philadelphia) as described Zhou, et al. Angiotensin receptor agonistic autoantibodies induce pre-eclampsia in pregnant mice. Nat. Med. 2008; 14(8):855-862). For urine osmolality analysis, mice were deprived of water for 24 hours, then urine was collected on Parafilm, transferred to 1.5 ml tube, the urine was diluted 10 times with distilled water and measured with vapor pressure osmometer (Wescor, Logan, Utah).

SCD Tg mice [2] = experiment: 2,3-DPG in RBCs and saturated Hb in SCD Tg mice after chronic treatment
Experimental: as §1
Chronic treatment with A2BR antagonist, PSB1115. SCD transgenic mice or wild type mice (eight weeks of age) were divided to two groups, one groups was injected with 200 μg of PSB1115 (an A2B receptor antagonist: obtained from Tocris Bioscience, St. Louis, Mo.) in PBS, daily for 8 weeks. One of groups was injected with saline.
2,3-DPG analysis. 2,3-DPG concentration in RBCs was detected by a commercially available kit (Roche, Nutley, N.J., and as described in Ericson A, de Verdier C H. A modified method for the determination of 2,3-diphosphoglycerate in erythrocytes. Scandinavian journal of clinical and laboratory investigation. 1972; 29(1):84-90).
Measurement of percentage of saturated Hb in mice. Percentage of saturated Hb (SpO2) in mice was measured by Oxysat (Kent Scientific Corp, CT). Mice were held in mouse holders (Kent Scientific Corp, CT) and Oxysat sensor was placed on a site approximately 1 cm from the base of the tail. When mouse was calm, the SpO2 was continuously recorded for about 2 minutes. The data were collected and SpO2 was calculated by average of SpO2 in two-minute measurement.

B1: PEG-ADA: polyethylene glycol-modified adenosine deaminase, a drug used to lower adenosine concentrations in ADA-deficient humans (protein, UniProt P56658 2-363, looked up)
Adenosine deaminase: AQTPAFNKPKVELHVHLDGAIKPETILYYGRKRGIALPADTPEELQNIIGMDKPLSLPEFLAKFDYYMPAIAGCREAVKRIAYEFVEMKAKDGVVYVEVRYSPHLLANSKVEPIPWNQAEGDLTPDEVVSLVNQGLQEGERDFGVKVRSILCCMRHQPSWSSEVVELCKKYREQTVVAIDLAGDETIEGSSLFPGHVKAYAEAVKSGVHRTVHAGEVGSANVVKEAVDTLKTERLGHGYHTLEDATLYNRLRQENMHFEVCPWSSYLTGAWKPDTEHPVVRFKNDQVNYSLNTDDPLIFKSTLDTDYQMTKNEMGFTEEEFKRLNINAAKSSFLPEDEKKELLDLLYKAYGMPSPASAEQCL
modifications: PEGylated
effect on kidney histology of control mice (WT mice): no significant effect
proteinuria (SCD Tg mice [1]): decreased
urine osmolality (SCD Tg mice [1]): increased
percentage of saturated Hb (SCD Tg mice [2]; chronic PEG-ADA treatment): increased
2,3-DPG levels in the RBCs (SCD Tg mice [2]; steady state, 8 weeks treatment): reduction
